Literature values, collected in article PMC7343451.

Biological target: SARS-CoV-2 spike RBD (Severe acute respiratory syndrome coronavirus 2) (UniProt P0DTC2)

**Q.** For “hACE2 peptide 21-43 (from UniProt Q9BYF1)”, which Kd is on record?
**A.** Its Kd is 47 nM.
